Article PMC9427990, “Dynamic mechanisms of CRISPR interference by Escherichia coli CRISPR-Cas3”
Numbering of substitutions follows the chain as printed.

T1: EcoCascade-crRNA(EMX1) (Escherichia coli, UniProt Q46901;P76632;Q46899;Q46898;Q46897 1-502;1-160;2-363;1-224;2-199)
T1 sequence 1: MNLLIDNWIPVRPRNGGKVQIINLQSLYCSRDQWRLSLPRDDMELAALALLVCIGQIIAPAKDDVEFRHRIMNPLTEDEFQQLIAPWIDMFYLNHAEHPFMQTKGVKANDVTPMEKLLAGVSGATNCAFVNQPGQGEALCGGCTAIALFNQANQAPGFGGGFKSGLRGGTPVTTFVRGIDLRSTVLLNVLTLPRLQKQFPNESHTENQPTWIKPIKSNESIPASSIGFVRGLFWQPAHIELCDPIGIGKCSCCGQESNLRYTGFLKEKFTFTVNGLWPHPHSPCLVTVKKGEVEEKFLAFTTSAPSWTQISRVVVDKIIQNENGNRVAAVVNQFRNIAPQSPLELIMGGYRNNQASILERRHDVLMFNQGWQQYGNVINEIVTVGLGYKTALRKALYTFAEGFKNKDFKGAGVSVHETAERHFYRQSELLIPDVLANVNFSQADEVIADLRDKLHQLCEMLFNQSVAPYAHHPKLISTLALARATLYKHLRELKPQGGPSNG
T1 sequence 2: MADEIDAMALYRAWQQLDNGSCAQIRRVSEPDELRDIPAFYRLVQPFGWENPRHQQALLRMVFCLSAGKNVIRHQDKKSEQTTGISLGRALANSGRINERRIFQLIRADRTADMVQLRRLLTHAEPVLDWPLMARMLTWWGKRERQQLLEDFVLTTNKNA
T1 sequence 3: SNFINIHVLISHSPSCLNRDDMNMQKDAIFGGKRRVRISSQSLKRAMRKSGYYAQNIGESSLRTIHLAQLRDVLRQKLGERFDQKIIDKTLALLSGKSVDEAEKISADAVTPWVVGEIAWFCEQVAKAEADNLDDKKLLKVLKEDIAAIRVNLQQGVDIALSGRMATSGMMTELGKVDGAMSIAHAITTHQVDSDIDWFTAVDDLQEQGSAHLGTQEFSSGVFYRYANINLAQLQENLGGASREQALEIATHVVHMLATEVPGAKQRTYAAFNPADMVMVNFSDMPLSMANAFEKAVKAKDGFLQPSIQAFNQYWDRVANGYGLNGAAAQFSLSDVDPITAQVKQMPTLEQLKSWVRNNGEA
T1 sequence 4: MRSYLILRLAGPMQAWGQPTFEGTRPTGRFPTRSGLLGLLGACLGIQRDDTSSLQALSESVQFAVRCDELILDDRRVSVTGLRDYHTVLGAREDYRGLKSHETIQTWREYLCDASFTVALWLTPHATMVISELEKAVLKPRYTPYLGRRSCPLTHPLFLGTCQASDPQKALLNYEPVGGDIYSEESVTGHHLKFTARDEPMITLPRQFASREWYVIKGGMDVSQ
T1 sequence 5: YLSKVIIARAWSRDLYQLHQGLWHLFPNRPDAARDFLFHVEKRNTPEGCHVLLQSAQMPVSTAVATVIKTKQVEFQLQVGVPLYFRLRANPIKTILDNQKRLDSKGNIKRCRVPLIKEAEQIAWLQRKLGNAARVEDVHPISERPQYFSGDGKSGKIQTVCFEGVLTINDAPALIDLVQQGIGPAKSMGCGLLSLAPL

B1: EMX1-AAG-0-bio (n0) (dsDNA)
DNA 1: TGGCGCATTGCCACGAAGACTTAACCGTTTTCTTCACGATCGTGACAAGACAATGACTAG
DNA 2: CTAGTCATTGTCTTGTCACGATCGTGAAGAAAACGGTTAAGTCTTCGTGGCAATGCGCCA
B2: EMX1-AAG-6-bio (n6) (dsDNA)
DNA 1: B1 DNA 1 with A19C, C20A, T21G, T22G, A23C, A24C
DNA 2: B1 DNA 2 with T37G, T38G, A39C, A40C, G41T, T42G
B3: EMX1-AAG-12-bio (n12) (dsDNA)
DNA 1: TGGCGCATTGCCACGAAGCAGGCCAATGGGTCTTCACGATCGTGACAAGACAATGACTAG
DNA 2: CTAGTCATTGTCTTGTCACGATCGTGAAGACCCATTGGCCTGCTTCGTGGCAATGCGCCA
B4: EMX1-AAG-32-bio (n32, paired PAM) (dsDNA)
DNA 1: TGGCGCATTGCCACGAAGCAGGCCAATGGGGAGGACATCGATGTCACCTCCAATGACTAG
DNA 2: CTAGTCATTGGAGGTGACATCGATGTCCTCCCCATTGGCCTGCTTCGTGGCAATGCGCCA

target: T1, EcoCascade-crRNA(EMX1); assay: BLI; BLI: PBS, 0.01% Tween 20, 0.02% BSA, 20 uM EcoCascade analyte, biotinylated DNA on streptavidin; temperature not stated; EMSA conditions not in material; conditions: protein: recombinant; tags: hexahistidine tag on Cas11, removed with HRV3C; copies: 1;2;6;1;1; label: Biotin-TEG; blunt

Binder	binding result
B1	no binding
B2	no binding
B3	no binding
B4	binds
